Data taken from FireProtDB (doi:10.1021/bi00093a001).

Conditions: Hordeum vulgare, MES 450 mM, reversible: yes, whole UniProt chain shown; for Tm / unfolding enthalpy (calorimetric) / unfolding enthalpy (van 't Hoff): Thermal, DSC
[1] = pH 6.3, 25 °C, GdnHCl, Fluorescence

B1: Subtilisin-chymotrypsin inhibitor-2A wild type, P01053 (protein)
chain: MSSVEKKPEGVNTGAGDRHNLKTEWPELVGKSVEEAKKVILQDKPEAQIIVLPVGTIVTMEYRIDRVRLFVDKLDNIAQVPRVG
Tm (pH 3): 64 °C
unfolding enthalpy (calorimetric) (pH 3): 61 kcal/mol
unfolding enthalpy (van 't Hoff) (pH 3): 61.2 kcal/mol
Tm (pH 3.5): 73.8 °C
unfolding enthalpy (calorimetric) (pH 3.5): 67 kcal/mol
unfolding enthalpy (van 't Hoff) (pH 3.5): 66.9 kcal/mol
denaturant m value [1]: 1.89 kcal/mol/M
denaturant midpoint (higher = more stable) [1]: 3.99 M
unfolding free energy [1]: 7.53 kcal/mol
